Data: the supplement of paper PMC10201428
± gives the standard deviation of the averaged measurements.

B1: library; a variant is named by its letters at N, in order (parent)
chain: ACATTTGTTGATACAACCATAAAATGATAATTACACCCATAAATTGATAATTATCACACCCANNNNNNNNNNNNNNCTCTGATCATAGTCAGACCAACATTGCTACGACCCGTATTCGCACCGACAC

Key:
[1] = variants of: B1; assay: relative integration efficiency (T-RL orientation) vs wild-type transposon end (log2 (normalized fold change)); transposon end mutated: right end (5 bp flank + 75 bp right end); higher = more efficient transposition; details: with VchCAST RNA-guided transposition machinery (E. coli BL21(DE3) host, lacZ target)
Procedure: (§1)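 Pooled, barcoded VchCAST (Tn6677) mini-transposon donor libraries; each variable transposon-end sequence sits in a fixed pDonor mini-transposon context (10-bp barcode and cargo not included). Left- or right-end libraries were co-transformed with pEffector (TniQ-Cascade, TnsABC, lacZ crRNA, T7, 0.1 mM IPTG) into E. coli BL21(DE3) and grown 18 h at 37 C. T-LR and T-RL junction amplicons were sequenced; output/input barcode fold change was normalised to the mean of four wild-type barcodes and log2-transformed. Two biological replicates; zero-count/undetected variants carry floor values (-10 / -15), censored here. Barcode uncoupling by PCR recombination adds noise.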

[2] = variants of: B1; assay: relative integration efficiency (T-LR orientation) vs wild-type transposon end (log2 (normalized fold change)); transposon end mutated: right end (5 bp flank + 75 bp right end); higher = more efficient transposition; details: with VchCAST RNA-guided transposition machinery (E. coli BL21(DE3) host, lacZ target)
Procedure: as §1

ACATTTGTTGATACAACCATAAAATGATAATTACACCCATAAATTGACAATTATCACACCCATAAATTGATATTGCCTCTGATCATAGTCAGACCAACATTGCTACGACCCGTATTCGCACCGACAC
relative integration efficiency (log2) [1]: -0.4021 ± 0.003
relative integration efficiency (log2) [2]: -0.401 ± 0.25

ACATTTGTTGATACAACCATAAAATGATAATTACACCCATAAATTGATAATTATCACAACCATAAGTTGATATTTTCTCTGATCATAGTCAGACCAACATTGCTACGACCCGTATTCGCACCGACAC
relative integration efficiency (log2) [1]: 0.0617 ± 0.048
relative integration efficiency (log2) [2]: -0.156 ± 0.28

ACATTTGTTGATACAACCATAATATGATAATTACACCCATAAATTGATAATTATCACACCCAATTTAACTATAACGCTCTGATCATAGTCAGACCAACATTGCTACGACCCGTATTCGCACCGACAC
relative integration efficiency (log2) [1]: -0.809 ± 0.12
relative integration efficiency (log2) [2]: 1.952 ± 0.015

ACATTTGTTGATACAACCATAAAAAGATAATTACACCCATAAATTGATAATTATCACACCCATAAATTGATATTGCCTCTGATCATAGTCAGACCAACATTGCTACGACCCGTATTCGCACCGACAC
relative integration efficiency (log2) [1]: -0.524 ± 0.069
relative integration efficiency (log2) [2]: -0.8 ± 0.34

ATATTTGTTGATACAACCATAAAATGATAATTACACCCATAAATTGATAATTATCACACCCATAAATTGATATTGCCTCTGATCATAGTCAGACCAACATTGCTACGACCCGTATTCGCACCGACAC
relative integration efficiency (log2) [1]: -0.0194 ± 0.017
relative integration efficiency (log2) [2]: 0.0698 ± 0.22

ACATTTGTTGATACAACCATAAAATGATAATTACACCCATAAATTGATAATTATCACACCCATAAATTGACATTGCCTCTGATCATAGTCAGACCAACATTGCTACGACCCGTATTCGCACCGACAC
relative integration efficiency (log2) [1]: -0.167 ± 0.015
relative integration efficiency (log2) [2]: 0.353 ± 0.12

ACATTTGTTGATACAACCGTAAAATGATAATTACACCCATAAATTGATAATTATCACACCCATAAATTGATATTGCCTCTGATCATAGTCAGACCAACATTGCTACGACCCGTATTCGCACCGACAC
relative integration efficiency (log2) [1]: -0.155 ± 0.081
relative integration efficiency (log2) [2]: -0.378 ± 0.051

ACATTTGTTGATACAACCATAAAATGATAATTACACCCATAAATTGATAAATATCACACCCATAAATTGATATTGCCTCTGATCATAGTCAGACCAACATTGCTACGACCCGTATTCGCACCGACAC
relative integration efficiency (log2) [1]: -0.455 ± 0.07
relative integration efficiency (log2) [2]: -0.206 ± 0.1

ACATTTGTTGATACAACCATAAGATGATAATTACACCCATAAATTGATAATTATCACACCCATAAATTGATATTGCCTCTGATCATAGTCAGACCAACATTGCTACGACCCGTATTCGCACCGACAC
relative integration efficiency (log2) [1]: -0.0394 ± 0.13
relative integration efficiency (log2) [2]: -0.227 ± 0.71

ACATTTGTTGATACAACCATAAAATGATAATTACACCCATACATTGATAATTATCACACCCATAAATTGATATTGCCTCTGATCATAGTCAGACCAACATTGCTACGACCCGTATTCGCACCGACAC
relative integration efficiency (log2) [1]: -0.945 ± 0.052
relative integration efficiency (log2) [2]: -0.708 ± 0.35

ACATTTGTTGATACAACCATAAAATGATAATTTCACCCATAAATTGATAATTATCACACCCATAAATTGATATTGCCTCTGATCATAGTCAGACCAACATTGCTACGACCCGTATTCGCACCGACAC
relative integration efficiency (log2) [1]: -0.264 ± 0.0049
relative integration efficiency (log2) [2]: -0.243 ± 0.38

ACATTTGTTGATACAACCATAAAATGATAATTACACCCATAAATAGATAATTATCACACCCATAAATTGATATTGCCTCTGATCATAGTCAGACCAACATTGCTACGACCCGTATTCGCACCGACAC
relative integration efficiency (log2) [1]: -0.307 ± 0.056
relative integration efficiency (log2) [2]: -0.351 ± 0.41

ACATTTGTTCATACAACCATAAAATGATAATTACACCCATAAATTGATAATTATCACACCCATAAATTGATATTGCCTCTGATCATAGTCAGACCAACATTGCTACGACCCGTATTCGCACCGACAC
relative integration efficiency (log2) [1]: -0.405 ± 0.069
relative integration efficiency (log2) [2]: -1.81 ± 0.24

ACATTTGTTGATACAACCATAAAATGATAATTACACCCATAAATTGATAATAATCACACCCAATTTAACTATAACGCTCTGATCATAGTCAGACCAACATTGCTACGACCCGTATTCGCACCGACAC
relative integration efficiency (log2) [1]: -1.26 ± 0.2
relative integration efficiency (log2) [2]: 2.3 ± 0.12

ACATTTGTTGATACAACCATAAAATGATAATTACACCCATAAAGTGATAATTATCACACCCATAAATTGATATTGCCTCTGATCATAGTCAGACCAACATTGCTACGACCCGTATTCGCACCGACAC
relative integration efficiency (log2) [1]: -0.00517 ± 0.11
relative integration efficiency (log2) [2]: -0.385 ± 0.26

ACATTTGTTGATTCAACCATAAAATGATAATTACACCCATAAATTGATAATTATCACACCCAATTTAACTATAACGCTCTGATCATAGTCAGACCAACATTGCTACGACCCGTATTCGCACCGACAC
relative integration efficiency (log2) [1]: -1.09 ± 0.14
relative integration efficiency (log2) [2]: 1.84 ± 0.15

ACATTTGTTGATACAACCATAAAATGATAGTTACACCCATAAATTGATAATTATCACACCCAATTTAACTATAACGCTCTGATCATAGTCAGACCAACATTGCTACGACCCGTATTCGCACCGACAC
relative integration efficiency (log2) [1]: -1.51 ± 0.13
relative integration efficiency (log2) [2]: 2.11 ± 0.26

ACATTTGTTGATACAACCATAAAATGATACTTACACCCATAAATTGATAATTATCACACCCAATTTAACTATAACGCTCTGATCATAGTCAGACCAACATTGCTACGACCCGTATTCGCACCGACAC
relative integration efficiency (log2) [1]: -1.2 ± 0.42
relative integration efficiency (log2) [2]: 2.682 ± 0.016

ACATTTGTTCATACAACCATAAAATGATAATTACACCCATAAATTGATAATTATCACACCCAATTTAACTATAACGCTCTGATCATAGTCAGACCAACATTGCTACGACCCGTATTCGCACCGACAC
relative integration efficiency (log2) [1]: -1.15 ± 0.31
relative integration efficiency (log2) [2]: 0.7 ± 0.19

ACATTTGTTGATACAACCATAAAATGATAATTACACCCATAAATTGATAATTATCACACCCATAAATTGCGCGTGCCTCTGATCATAGTCAGACCAACATTGCTACGACCCGTATTCGCACCGACAC
relative integration efficiency (log2) [1]: -0.618 ± 0.12
relative integration efficiency (log2) [2]: 1.7 ± 0.1

ACATTTGTTGATACAACCATAAAATGATAATTACACCCATAAATTGATAATTATCACACCCGTAAATTGATATTGCCTCTGATCATAGTCAGACCAACATTGCTACGACCCGTATTCGCACCGACAC
relative integration efficiency (log2) [1]: -0.0391 ± 0.14
relative integration efficiency (log2) [2]: 0.97 ± 0.12

ACATTTGTTGATACAACCATAAAATGATAATTACACCCATAAATTGATAATTACCACACCCATAAATTGATATTGCCTCTGATCATAGTCAGACCAACATTGCTACGACCCGTATTCGCACCGACAC
relative integration efficiency (log2) [1]: -0.0952 ± 0.0069
relative integration efficiency (log2) [2]: -0.015 ± 0.36

ACATTTGTTGATACAACCATAAAATGATAATTACACCCATAAATTGATAATTATCACACCCATAAGTTGATATTGCCTCTGATCATAGTCAGACCAACATTGCTACGACCCGTATTCGCACCGACAC
relative integration efficiency (log2) [1]: -0.0544 ± 0.061
relative integration efficiency (log2) [2]: 0.2 ± 0.074
